The results in this text go back to PMC10163345 (Journal of Cell Science, 2023).

Where no end group is shown, it is not given here.

This assay deals with T1, constitutively active truncated His-tagged WT calcineurin (6×His–CNAαWT:CNB) (human | , UniProt Q08209 1-392; P63098 1-170).
T1 construct: human CNAα (PPP3CA), truncated at residue 392, WT; calcineurin B subunit (PPP3R1, amino acids 1–170), expressed in tandem with CNAα; p11 vector (PSI:Biology-Materials Repository); held on His-tag Dynabeads in the pull-down; also called CNWT; source: E. coli BL21 (DE3), purified (Ni-NTA agarose, dialysed)
T1 sequence (Q08209 1-392, chain 1 of 2): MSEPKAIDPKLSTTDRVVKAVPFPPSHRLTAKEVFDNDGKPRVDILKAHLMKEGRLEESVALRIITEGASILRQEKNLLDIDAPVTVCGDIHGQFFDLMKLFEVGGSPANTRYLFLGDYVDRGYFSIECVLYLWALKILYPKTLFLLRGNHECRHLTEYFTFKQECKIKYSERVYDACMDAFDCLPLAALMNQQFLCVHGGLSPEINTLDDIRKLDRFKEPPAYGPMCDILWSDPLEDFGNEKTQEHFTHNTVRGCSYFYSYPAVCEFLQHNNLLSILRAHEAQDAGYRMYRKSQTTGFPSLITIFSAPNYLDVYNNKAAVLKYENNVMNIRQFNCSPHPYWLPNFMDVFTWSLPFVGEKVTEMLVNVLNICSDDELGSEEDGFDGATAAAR
T1 sequence (P63098 whole entry, chain 2 of 2, the tested form may be a part): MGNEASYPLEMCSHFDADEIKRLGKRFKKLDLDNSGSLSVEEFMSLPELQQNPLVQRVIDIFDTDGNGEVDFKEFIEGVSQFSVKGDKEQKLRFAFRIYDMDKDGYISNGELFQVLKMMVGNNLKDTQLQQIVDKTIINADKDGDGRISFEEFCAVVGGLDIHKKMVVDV
Put plainly: pull-down; 1–2 μg 6×His-tagged CN bound to His-Tag Dynabeads; 7–10 μg purified GST-tagged peptide added, 2 h at 4°C; 50 mM Tris-HCl pH 7.5, 150 mM NaCl, 0.1% Tween 20, 1 mM β-mercaptoethanol, 15 mM imidazole, 0.5 mg/ml BSA; immunoblot. Particulars: both partners purified.

B1: GST-tagged POC5 PxIxIT peptide (POC5 PDVRIS) (peptide)
chain: KGELVPDVRISTIHDI
modifications: also: GST-tagged
notes: 16mer of human POC5 with the PxIxIT motif PDVRIS (residues 35–40 of Q8NA72-3) in the centre; pGEX-4T-3 vector; also called WT POC5 peptide; source: E. coli BL21 (DE3), purified (Glutathione Sepharose 4B, dialysed)
B1: the binding result is on record as “binds”.
